Laboratory results as given in patent US20140322726A1.

Legend:
[1] = biological target: endogenous human asparagine synthetase (ASNS) in leukemia cells (human) (UniProt P08243); assay: flow cytometry with QIFIKIT calibration beads, K562 cells, control antibody at 3 ug/ml
[2] = biological target: endogenous human asparagine synthetase (ASNS) in leukemia cells (human) (UniProt P08243); assay: flow cytometry on fixed, permeabilised MOLT-4 cells (extremely low ASNS), control antibody at 3 ug/ml
[3] = biological target: endogenous human asparagine synthetase (ASNS) in leukemia cells (human) (UniProt P08243); assay: flow cytometry with QIFIKIT calibration beads, MOLT-4 cells, control antibody at 3 ug/ml
[4] = biological target: endogenous human asparagine synthetase (ASNS) in leukemia cells (human) (UniProt P08243); assay: flow cytometry on fixed, permeabilised K562 cells (high ASNS), control antibody at 3 ug/ml

UniProt P08243, sequence (P08243 2-561): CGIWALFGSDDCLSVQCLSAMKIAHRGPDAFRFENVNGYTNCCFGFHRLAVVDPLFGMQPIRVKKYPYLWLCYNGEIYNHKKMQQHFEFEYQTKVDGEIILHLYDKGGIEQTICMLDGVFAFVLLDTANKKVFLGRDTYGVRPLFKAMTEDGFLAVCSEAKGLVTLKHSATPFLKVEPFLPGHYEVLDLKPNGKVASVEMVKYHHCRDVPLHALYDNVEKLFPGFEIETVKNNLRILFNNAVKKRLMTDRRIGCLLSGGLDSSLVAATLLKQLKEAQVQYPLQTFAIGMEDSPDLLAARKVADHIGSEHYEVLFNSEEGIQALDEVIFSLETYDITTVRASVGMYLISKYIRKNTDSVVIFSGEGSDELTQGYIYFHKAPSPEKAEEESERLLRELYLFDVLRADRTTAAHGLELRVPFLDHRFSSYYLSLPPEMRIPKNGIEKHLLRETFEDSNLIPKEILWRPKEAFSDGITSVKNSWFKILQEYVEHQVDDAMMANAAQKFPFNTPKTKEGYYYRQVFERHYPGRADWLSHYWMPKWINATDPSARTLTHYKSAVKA

“control mouse IgG (3423, 2AHB12; Institute of Immunology) (antibody)” showed an ABC (antibody binding capacity) [1] of 874 units/cell, an MFI (arbitrary units) [2] of 3.17 and an ABC (antibody binding capacity) [3] of 631 units/cell. It also gave an MFI (arbitrary units) [4] of 4.56.
